In paper PMC6193142:

Target: fibrillin (of fibrillin microfibrils purified from the ciliary zonule) (bovine (endogenous in ciliary zonule)) (UniProt P98133)
Assay: negative-stain TEM with single-particle 3D reconstruction; microfibrils purified from bovine ciliary zonule; 2797 repeat particles; 2-fold symmetry imposed along the microfibril axis; sub-models of bead, arm and interbead; number of chains judged from volume and from fitting domain models into the interbead density

“fibrillin (of fibrillin microfibrils purified from the ciliary zonule) (from UniProt P98133 25-2871) (natural protein)” showed a stoichiometry N (molecules per microfibril repeat) of 8.
